Test results published in article PMC11117730, “A Novel Bifunctional Fusion Protein (Anti-IL-17A-sST2) Protects against Acute Liver Failure, Modulating the TLR4/MyD88 Pathway and NLRP3 Inflammasome Activation” (Biomedicines, 2024).

Target: T1, sST2-Fc (mouse, UniProt P14719 27-332)
T1 construct: mouse ST2L (IL-33 receptor), amino acids 27-332, cloned into a pTT5 vector that contains the human IgG4 Fc domain; also called soluble ST2 Fc fusion
T1 sequence (looked up): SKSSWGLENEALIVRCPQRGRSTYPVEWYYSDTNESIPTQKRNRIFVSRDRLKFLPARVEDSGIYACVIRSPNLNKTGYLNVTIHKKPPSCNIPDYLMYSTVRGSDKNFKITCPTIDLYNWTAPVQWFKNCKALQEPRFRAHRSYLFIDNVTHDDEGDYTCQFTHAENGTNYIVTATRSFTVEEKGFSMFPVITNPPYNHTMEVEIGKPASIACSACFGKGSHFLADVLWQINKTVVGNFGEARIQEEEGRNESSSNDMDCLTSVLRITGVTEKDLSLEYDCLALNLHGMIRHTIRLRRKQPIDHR
Test: SPR; Biacore T200; antigen (mouse IL-33) immobilised on CM5 by amine coupling; proteins flowed in a 2-fold dilution series for 120 s, dissociation 480 s
Conditions: both partners purified

Kd: 0.174 nM
B1: mouse IL-33 (ligand)
chain: SIQGTSLLTQSPASLSTYNDQSVSFVLENGCYVINVDDSGKDQEQDQVLLRYYESPCPASQSGDGVDGKKLMVNMSPIKDTDIWLHANDKDYSVELQRGDVSPPEQAFFVLHKKSSDFVSFECKNLPGTYIGVKDNQLALVEEKDESCNNIMFKLSKI
